# Data from patent US20250122277A1 (Novartis, published 2025).
# T1: rec marmoset IL-17 (marmoset, UniProt A0ACM8QD00 24-153)
# T1 sequence: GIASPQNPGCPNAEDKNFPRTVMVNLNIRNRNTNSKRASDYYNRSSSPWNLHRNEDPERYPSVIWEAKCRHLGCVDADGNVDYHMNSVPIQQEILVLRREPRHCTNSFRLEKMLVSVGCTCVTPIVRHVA
# T2: rec rhesus monkey IL-17 (rhesus monkey, UniProt F6T3G5 24-155)
# T2 sequence: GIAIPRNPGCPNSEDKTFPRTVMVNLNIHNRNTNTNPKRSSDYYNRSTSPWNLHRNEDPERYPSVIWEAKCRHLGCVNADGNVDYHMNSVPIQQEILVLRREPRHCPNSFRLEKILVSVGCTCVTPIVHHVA
# Legend:
# [1] = biological target: T3, rec cynomolgous monkey IL-17 (cynomolgous monkey); experiment: SPR (BIAcore 2000), mean (printed n = 10)
# From the text: (§1) Determination of kinetic binding parameters and levels of crossreactivity are done by surface plasmon resonance measurements using the optical biosensor BIAcore® 2000 (BIAcore AB, Upsalla, Sweden, see Lit. HS 1,2 for details). This technology allows the label-free determination the microscopic rate constants for binding (kₒₙ) and dissociation (koff) of a ligand to a receptor. It is therefore especially suited for characterizing the antibody-antigen interactions. […] Covalent binding of Fcγ capture antibody is done with the ‘Amine coupling kit’ provided by BIAcore (BIAcore, Cat. No. BR-1000-50). […] As a guideline, 1000 RUs correspond to a mass transfer of 1 ng/mm². […] The results are compared to the protocol described in Table 9 (see below).
# (§2) Two independent runs testing 6 IL-17 concentrations in each run are performed. Concentrations for human IL-17 are 2, 4, 8, 12, 16, 20 nM and 10, 20, 30, 40, 50, 60 nM for all other species. Complete data analysis yields n=12 individual measurements for each IL-17 species. The KD as well as SEM is reported.
# [2] = biological target: T3, rec cynomolgous monkey IL-17; experiment: SPR (BIAcore 2000), 25 nM IL-17, run 1
# From the text: as §1
# (§3) Two independent runs testing 6 IL-17 concentrations in each run are performed. […] Complete data analysis yields n=12 individual measurements for each IL-17 species. The KD as well as SEM is reported.
# [3] = biological target: T3, rec cynomolgous monkey IL-17; experiment: SPR (BIAcore 2000), 15 nM IL-17, run 2
# From the text: as §1, §3
# rec marmoset IL-17 [4] = biological target: T1, rec marmoset IL-17; experiment: SPR (BIAcore 2000), 20 nM IL-17, run 2
# From the text: as §1, §2
# [5] = biological target: T3, rec cynomolgous monkey IL-17; experiment: SPR (BIAcore 2000), 20 nM IL-17, run 2
# From the text: as §1, §2
# rec rhesus monkey IL-17 [6] = biological target: T2, rec rhesus monkey IL-17; experiment: SPR (BIAcore 2000), 20 nM IL-17, run 2
# From the text: as §1, §2
# rec marmoset IL-17 [7] = biological target: T1, rec marmoset IL-17; experiment: SPR (BIAcore 2000), 10 nM IL-17, run 1
# From the text: as §1, §2
# [8] = biological target: T3, rec cynomolgous monkey IL-17; experiment: SPR (BIAcore 2000), 10 nM IL-17, run 1
# From the text: as §1, §2
# rec rhesus monkey IL-17 [9] = biological target: T2, rec rhesus monkey IL-17; experiment: SPR (BIAcore 2000), 10 nM IL-17, run 1
# From the text: as §1, §2
# rec marmoset IL-17 [10] = biological target: T1, rec marmoset IL-17; experiment: SPR (BIAcore 2000), 20 nM IL-17, run 1
# From the text: as §1, §2
# [11] = biological target: T3, rec cynomolgous monkey IL-17; experiment: SPR (BIAcore 2000), 20 nM IL-17, run 1
# From the text: as §1, §2
# rec rhesus monkey IL-17 [12] = biological target: T2, rec rhesus monkey IL-17; experiment: SPR (BIAcore 2000), 20 nM IL-17, run 1
# From the text: as §1, §2
# rec rhesus monkey IL-17 [13] = biological target: T2, rec rhesus monkey IL-17; experiment: SPR (BIAcore 2000), 60 nM IL-17, run 1
# From the text: as §1, §2
# rec marmoset IL-17 [14] = biological target: T1, rec marmoset IL-17; experiment: SPR (BIAcore 2000), 30 nM IL-17, run 2
# From the text: as §1, §2
# [15] = biological target: T3, rec cynomolgous monkey IL-17; experiment: SPR (BIAcore 2000), 30 nM IL-17, run 2
# From the text: as §1, §2
# rec rhesus monkey IL-17 [16] = biological target: T2, rec rhesus monkey IL-17; experiment: SPR (BIAcore 2000), 30 nM IL-17, run 2
# From the text: as §1, §2
# rec rhesus monkey IL-17 [17] = biological target: T2, rec rhesus monkey IL-17; experiment: SPR (BIAcore 2000), 60 nM IL-17, run 2
# From the text: as §1, §2
# rec marmoset IL-17 [18] = biological target: T1, rec marmoset IL-17; experiment: SPR (BIAcore 2000), 30 nM IL-17, run 1
# From the text: as §1, §2
# [19] = biological target: T3, rec cynomolgous monkey IL-17; experiment: SPR (BIAcore 2000), 30 nM IL-17, run 1
# From the text: as §1, §2
# rec rhesus monkey IL-17 [20] = biological target: T2, rec rhesus monkey IL-17; experiment: SPR (BIAcore 2000), 30 nM IL-17, run 1
# From the text: as §1, §2
# [21] = biological target: T3, rec cynomolgous monkey IL-17; experiment: SPR (BIAcore 2000), 5 nM IL-17, run 2
# From the text: as §1, §3
# [22] = biological target: T3, rec cynomolgous monkey IL-17; experiment: SPR (BIAcore 2000), 5 nM IL-17, run 1
# From the text: as §1, §3
# rec marmoset IL-17 [23] = biological target: T1, rec marmoset IL-17; experiment: SPR (BIAcore 2000), 40 nM IL-17, run 2
# From the text: as §1, §2
# rec rhesus monkey IL-17 [24] = biological target: T2, rec rhesus monkey IL-17; experiment: SPR (BIAcore 2000), 40 nM IL-17, run 2
# From the text: as §1, §2
# rec marmoset IL-17 [25] = biological target: T1, rec marmoset IL-17; experiment: SPR (BIAcore 2000), 40 nM IL-17, run 1
# From the text: as §1, §2
# rec rhesus monkey IL-17 [26] = biological target: T2, rec rhesus monkey IL-17; experiment: SPR (BIAcore 2000), 40 nM IL-17, run 1
# From the text: as §1, §2
# [27] = biological target: T3, rec cynomolgous monkey IL-17; experiment: SPR (BIAcore 2000), mean of run 1 + 2
# From the text: as §1, §2
# rec rhesus monkey IL-17 [28] = biological target: T2, rec rhesus monkey IL-17; experiment: SPR (BIAcore 2000), mean of run 1 + 2
# From the text: as §1, §2
# rec marmoset IL-17 [29] = biological target: T1, rec marmoset IL-17; experiment: SPR (BIAcore 2000), 50 nM IL-17, run 2
# From the text: as §1, §2
# [30] = biological target: T3, rec cynomolgous monkey IL-17; experiment: SPR (BIAcore 2000), 25 nM IL-17, run 2
# From the text: as §1, §3
# rec marmoset IL-17 [31] = biological target: T1, rec marmoset IL-17; experiment: SPR (BIAcore 2000), 10 nM IL-17, run 2
# From the text: as §1, §2
# [32] = biological target: T3, rec cynomolgous monkey IL-17; experiment: SPR (BIAcore 2000), 10 nM IL-17, run 2
# From the text: as §1, §2
# rec rhesus monkey IL-17 [33] = biological target: T2, rec rhesus monkey IL-17; experiment: SPR (BIAcore 2000), 10 nM IL-17, run 2
# From the text: as §1, §2
# rec marmoset IL-17 [34] = biological target: T1, rec marmoset IL-17; experiment: SPR (BIAcore 2000), mean n = 10
# From the text: as §1, §2
# rec marmoset IL-17 [35] = biological target: T1, rec marmoset IL-17; experiment: SPR (BIAcore 2000), 50 nM IL-17, run 1
# From the text: as §1, §2
# rec rhesus monkey IL-17 [36] = biological target: T2, rec rhesus monkey IL-17; experiment: SPR (BIAcore 2000), 50 nM IL-17, run 1
# From the text: as §1, §2
# rec rhesus monkey IL-17 [37] = biological target: T2, rec rhesus monkey IL-17; experiment: SPR (BIAcore 2000), mean n = 12
# From the text: as §1, §2
binder,measurement,setting,value
"recombinant human AIN457 (batch KB03303A) (antibody, V domains shown, same variable domains as m1; also called AIN457 (KB03303A); NVP-AIN457 (KB03303A)) VH: EVQLVESGGGLVQPGGSLRLSCAASGFTFSNYWMNWVRQAPGKGLEWVAAINQDGSEKYYVGSVKGRFTISRDNAKNSLYLQMNSLRVEDTAVYYCVRDYYDILTDYYIHYWYFDLWGRGTLVTVSS VL: not shown",Kd,[1],6 nM
same,Kd,[2],6.26 nM
same,Kd,[3],7.41 nM
same,Kd,rec marmoset IL-17 [4],1.17 nM
same,Kd,[5],7.17 nM
same,Kd,rec rhesus monkey IL-17 [6],5.93 nM
same,Kd,rec marmoset IL-17 [7],0.895 nM
same,Kd,[8],2.24 nM
same,Kd,rec rhesus monkey IL-17 [9],2.28 nM
same,Kd,rec marmoset IL-17 [10],0.782 nM
same,Kd,[11],4.75 nM
same,Kd,rec rhesus monkey IL-17 [12],7.34 nM
same,Kd,rec rhesus monkey IL-17 [13],13.1 nM
same,Kd,rec marmoset IL-17 [14],1.57 nM
same,Kd,[15],8.32 nM
same,Kd,rec rhesus monkey IL-17 [16],8.16 nM
same,Kd,rec rhesus monkey IL-17 [17],12.3 nM
same,Kd,rec marmoset IL-17 [18],1.17 nM
same,Kd,[19],7.89 nM
same,Kd,rec rhesus monkey IL-17 [20],6.04 nM
same,Kd,[21],7.08 nM
same,Kd,[22],1.1 nM
same,Kd,rec marmoset IL-17 [23],1.36 nM
same,Kd,rec rhesus monkey IL-17 [24],9.74 nM
same,Kd,rec marmoset IL-17 [25],1.17 nM
same,Kd,rec rhesus monkey IL-17 [26],12.4 nM
same,Kd,[27],6 nM
same,Kd,rec rhesus monkey IL-17 [28],9 nM
same,Kd,rec marmoset IL-17 [29],1.67 nM
same,Kd,[30],7.34 nM
same,Kd,rec marmoset IL-17 [31],1.13 nM
same,Kd,[32],6.9 nM
same,Kd,rec rhesus monkey IL-17 [33],7.04 nM
same,Kd,rec marmoset IL-17 [34],1.21 nM
same,Kd,rec marmoset IL-17 [35],1.21 nM
same,Kd,rec rhesus monkey IL-17 [36],11.2 nM
same,Kd,rec rhesus monkey IL-17 [37],8.96 nM
